From patent US20040121386

Key:
[1] = system: T1, His-tagged MKK7γ1
T1 sequence: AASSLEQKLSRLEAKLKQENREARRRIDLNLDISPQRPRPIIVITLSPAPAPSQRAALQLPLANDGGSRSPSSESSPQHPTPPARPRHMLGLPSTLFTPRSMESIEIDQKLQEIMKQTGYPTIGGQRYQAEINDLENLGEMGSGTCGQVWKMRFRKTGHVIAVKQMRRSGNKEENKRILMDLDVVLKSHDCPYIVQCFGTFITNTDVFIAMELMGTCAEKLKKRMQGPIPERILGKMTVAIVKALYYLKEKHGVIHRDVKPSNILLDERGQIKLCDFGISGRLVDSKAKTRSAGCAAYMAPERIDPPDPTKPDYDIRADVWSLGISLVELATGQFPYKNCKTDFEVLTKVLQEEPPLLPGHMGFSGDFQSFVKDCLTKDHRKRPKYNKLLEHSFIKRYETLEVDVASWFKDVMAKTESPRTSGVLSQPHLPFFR

[2] = system: unactive MKK7β1 (UBI)
[3] = system: unactive JNK1 (Upstate, Inc.)

Substance | phosphorylation in a two-step cascade kinase assay (γ-32P-ATP, SDS/PAGE, autoradiography) [1] | phosphorylation in a two-step cascade kinase assay (γ-32P-ATP, SDS/PAGE, autoradiography) [2] | phosphorylation in a two-step cascade kinase assay (γ-32P-ATP, SDS/PAGE, autoradiography) [3]
Active MEKK1 (Upstate, Inc.) | The His-tagged MKK7γ1 protein and the MKK7β1 protein was phosphorylated by MEKK1 | The His-tagged MKK7γ1 protein and the MKK7β1 protein was phosphorylated by MEKK1 | –
unactive MKK7β1 (UBI) | – | – | in turn was able to phosphorylate JNK1
